According to publication PMC4065332, “PEX14 binding to Arabidopsis PEX5 has differential effects on PTS1 and PTS2 cargo occupancy of the receptor” (Febs Letters, 2014):
Blank lines part the entries; values can stand above or below the binder they belong to. Where no end group is shown, it is not given here. lissamine = lissamine: fluorescent label (lissamine) on the peptide

Tests used:
Conditions in all cases: both partners purified
[1] = target: T1, PEX5 (340–728), termed PEX5C (Arabidopsis thaliana, UniProt Q9FMA3 340-728); assay: fluorescence polarisation; fluorescence anisotropy; dilution series of PEX5C (1 μM–0.04 nM) with lissamine-YQSKL (100 nM); HEPES 20 mM, NaCl 150 mM, pH 7.5; fitted to a 1:1 binding model; without PEX14N
T1 construct: Arabidopsis PEX5 residues 340-728; holds six of the nine W-X3-F/Y motifs and the TPR domain; lacks residues 314-334; also called His6-PEX5C; AtPEX5C; source: E. coli, purified via IMAC
T1 sequence (looked up): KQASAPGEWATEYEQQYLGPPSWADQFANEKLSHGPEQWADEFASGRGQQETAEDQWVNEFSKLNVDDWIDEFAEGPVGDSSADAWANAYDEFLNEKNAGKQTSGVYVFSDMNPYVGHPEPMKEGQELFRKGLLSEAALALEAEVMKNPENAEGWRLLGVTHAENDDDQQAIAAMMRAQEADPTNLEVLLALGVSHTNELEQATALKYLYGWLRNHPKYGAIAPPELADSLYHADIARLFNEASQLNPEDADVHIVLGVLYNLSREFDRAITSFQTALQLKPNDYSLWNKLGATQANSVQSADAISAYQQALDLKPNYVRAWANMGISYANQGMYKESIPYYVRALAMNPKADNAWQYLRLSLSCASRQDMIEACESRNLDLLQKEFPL

[2] = target: T1, PEX5 (340–728), termed PEX5C; assay: fluorescence polarisation; fluorescence anisotropy; the same dilution series of PEX5C with lissamine-YQSKL (100 nM) after addition of PEX14N to a constant 1 μM; HEPES 20 mM, NaCl 150 mM, pH 7.5
[3] = target: T1, PEX5 (340–728), termed PEX5C; assay: far-Western, overlay or dot blot; purified PEX5 constructs pipetted onto nitrocellulose, blocked in 3% BSA PBS-T, probed 1 h with peptide-HRP (200 nM) or PEX14N-HRP (50 nM), ECL; for unloading then incubated with PEX14N 0.2 μM 1 h and 2 μM 16 h at 4 °C

Kd [1]: 8.6 ± 4 nM
Kd [2]: 11.5 ± 3.4 nM
B1: lissamine-YQSKL (peptide)
peptide: lissamine-YQSKL
notes: canonical PTS1 cargo peptide; The name puts the lissamine before the peptide; also called lissamine-PTS1; PTS1

binding result [3]: binds
B2: HRP–YQSKL (CGGGYQSKL coupled to HRP–maleimide) (peptide)
peptide: C(HRP‑maleimide)GGGYQSKL
notes: generic PTS1 cargo peptide; also called HRP-SKL; peptide-HRP; source: synthetic peptide, coupled to HRP-maleimide (Sigma)
